Target: SARS-CoV-2 spike protein variant Y483A (Table 27), on VSV pseudoparticles (SARS-CoV-2) (UniProt P0DTC2)
Assay: cell-based or functional assay

For mAb10987 (antibody), the Relative neutralization (5 µg/ml, Vero cells) was 99%.
